The supplement of paper PMC9112550, “Optimization of the antimicrobial peptide Bac7 by deep mutational scanning” (BMC Biology, 2022)

System: Escherichia coli TOP10
Assay: shrunken log2 fold change of peptide-encoding DNA abundance (4.5 h post-induction vs induction); higher = less antimicrobial activity (less host growth inhibition)
Conditions: time post-induction: 4.5 h; library: site-saturation at positions 5, 18, 19, 20
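Further: peptides expressed intracellularly from a pBAD plasmid library in pooled LB shake-flask culture, induced with 0.3% L-arabinose, DNA abundance read by NGS, three biological replicates, DESeq2 with apeglm shrinkage.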

Row | Sequence | shrunken log2 fold change
1 | RRIRQRPPRLPRPRPRPQRVPRP | -0.182
2 | RRIRIRPPRLPRPRPRPGRHPRP | 0.0231
3 | RRIRDRPPRLPRPRPRPNICPRP | 0.153
4 | RRIRVRPPRLPRPRPRPCDIPRP | -0.149
5 | RRIRQRPPRLPRPRPRPEEWPRP | 0.0824
6 | RRIRFRPPRLPRPRPRPEGEPRP | -0.0563
7 | RRIRPRPPRLPRPRPRPCPYPRP | -1.08
8 | RRIRKRPPRLPRPRPRPVSIPRP | -0.0178
9 | RRIRFRPPRLPRPRPRPKQHPRP | -0.176
10 | RRIRKRPPRLPRPRPRPCVGPRP | 0.334
11 | RRIRTRPPRLPRPRPRPNCTPRP | -0.485
12 | RRIRKRPPRLPRPRPRPCKIPRP | -0.248
13 | RRIRERPPRLPRPRPRPVIVPRP | -0.373
14 | RRIRWRPPRLPRPRPRPTDVPRP | -0.283
15 | RRIRWRPPRLPRPRPRPFRHPRP | -0.0307
16 | RRIRKRPPRLPRPRPRPTGDPRP | 0.727
17 | RRIRYRPPRLPRPRPRPCCKPRP | 0.0599
18 | RRIRNRPPRLPRPRPRPDGCPRP | 0.136
19 | RRIRRRPPRLPRPRPRPVYAPRP | 0.21
20 | RRIRPRPPRLPRPRPRPHLNPRP | -0.517

Row | Sequence | shrunken log2 fold change
21 | RRIRDRPPRLPRPRPRPLMKPRP | -0.19
22 | RRIRFRPPRLPRPRPRPVDNPRP | -0.0449
23 | RRIRERPPRLPRPRPRPPKFPRP | -0.0978
24 | RRIRARPPRLPRPRPRPHNKPRP | -0.398
25 | RRIRNRPPRLPRPRPRPMEKPRP | 0.0048
26 | RRIRLRPPRLPRPRPRPEAHPRP | -0.187
27 | RRIRQRPPRLPRPRPRPWNLPRP | -0.0507
28 | RRIRIRPPRLPRPRPRPSWHPRP | -0.707
29 | RRIRCRPPRLPRPRPRPNKIPRP | -0.461
30 | RRIRNRPPRLPRPRPRPSWHPRP | -0.535
31 | RRIRGRPPRLPRPRPRPQLDPRP | 0.646
32 | RRIRMRPPRLPRPRPRPQSRPRP | 0.328
33 | RRIRARPPRLPRPRPRPGSDPRP | 0.536
34 | RRIRFRPPRLPRPRPRPRTIPRP | -0.219
35 | RRIRDRPPRLPRPRPRPLSGPRP | -0.0838
36 | RRIRNRPPRLPRPRPRPAYVPRP | -0.0369
37 | RRIRSRPPRLPRPRPRPVLHPRP | -0.201
38 | RRIRDRPPRLPRPRPRPRYGPRP | -0.0472
39 | RRIRMRPPRLPRPRPRPWTSPRP | 0.0303
40 | RRIRYRPPRLPRPRPRPKNVPRP | 0.0242

Row | Sequence | shrunken log2 fold change
41 | RRIRIRPPRLPRPRPRPDLVPRP | -0.201
42 | RRIRWRPPRLPRPRPRPIMFPRP | -0.189
43 | RRIRPRPPRLPRPRPRPHAYPRP | -0.317
44 | RRIRERPPRLPRPRPRPIAVPRP | 0.0116
45 | RRIRTRPPRLPRPRPRPSETPRP | 0.11
46 | RRIRHRPPRLPRPRPRPICCPRP | 0.055
47 | RRIRRRPPRLPRPRPRPIETPRP | -0.00874
48 | RRIRYRPPRLPRPRPRPNQMPRP | -0.194
49 | RRIRQRPPRLPRPRPRPYPQPRP | -0.00227
50 | RRIRHRPPRLPRPRPRPGSTPRP | -0.681
51 | RRIRMRPPRLPRPRPRPEVMPRP | 2.84
52 | RRIRVRPPRLPRPRPRPKVHPRP | -0.192
53 | RRIRARPPRLPRPRPRPNDFPRP | -0.214
54 | RRIRNRPPRLPRPRPRPIQYPRP | -0.377
55 | RRIRKRPPRLPRPRPRPCPWPRP | 0.332
56 | RRIRKRPPRLPRPRPRPTRGPRP | 0.857
57 | RRIRARPPRLPRPRPRPWHYPRP | -0.253
58 | RRIRWRPPRLPRPRPRPDQLPRP | 0.066
59 | RRIRKRPPRLPRPRPRPPAIPRP | 0.657
60 | RRIRNRPPRLPRPRPRPTCVPRP | -0.185
